B1: ScECM4 (ECM4 from Saccharomyces cerevisiae, glutathionyl-hydroquinone reductase, Xi-class glutathione transferase) (enzyme, UniProt P36156 1-370, looked up)
chain: MSKQWASGTNGAFKRQVSSFRETISKQHPIYKPAKGRYWLYVSLACPWAHRTLITRALKGLTSVIGCSVVHWHLDEKGWRFLDMEKQLEDSEDFLEHWHDVAGGIRTAKEDSSKSFAEIKNDSQRFMVDATNEPHYGYKRISDLYYKSDPQYSARFTVPVLWDLETQTIVNNESSEIIRILNSSAFDEFVDDDHKKTDLVPAQLKTQIDDFNSWVYDSINNGVYKTGFAEKAEVYESEVNNVFEHLDKVEKILSDKYSKLKAKYGEEDRQKILGEFFTVGDQLTEADIRLYTTVIRFDPVYVQHFKCNFTSIRAGYPFIHLWVRNLYWNYDAFRYTTDFDHIKLHYTRSHTRINPLGITPLGPKPDIRPL
notes: ECM4 (Gto2), Saccharomyces cerevisiae, YKR076W; Homodimer in the crystal; The printed end of the C-terminal domain (E372) probably counts residues added by the XhoI site and vector before the His tag (surmised); also called Gto2; GHR ScECM4; source: E. coli Rosetta2 (DE3) pLysS, purified (Ni-NTA, gel filtration on Superdex 200); not shown: His6, C-terminal, kept
B2: glutathionylated ScECM4 (ScECM4-SG) (enzyme, Saccharomyces cerevisiae, UniProt P36156 1-370, looked up)
chain: MSKQWASGTNGAFKRQVSSFRETISKQHPIYKPAKGRYWLYVSLACPWAHRTLITRALKGLTSVIGCSVVHWHLDEKGWRFLDMEKQLEDSEDFLEHWHDVAGGIRTAKEDSSKSFAEIKNDSQRFMVDATNEPHYGYKRISDLYYKSDPQYSARFTVPVLWDLETQTIVNNESSEIIRILNSSAFDEFVDDDHKKTDLVPAQLKTQIDDFNSWVYDSINNGVYKTGFAEKAEVYESEVNNVFEHLDKVEKILSDKYSKLKAKYGEEDRQKILGEFFTVGDQLTEADIRLYTTVIRFDPVYVQHFKCNFTSIRAGYPFIHLWVRNLYWNYDAFRYTTDFDHIKLHYTRSHTRINPLGITPLGPKPDIRPL
modifications: glutathione covalently bound to C46 (mixed disulfide bond)
notes: ECM4 (Gto2), Saccharomyces cerevisiae, YKR076W; same construct as m1, glutathionylated at C46 after soaking or co-crystallisation with GS-menadione; Same construct as m1, with glutathione on C46; Homodimer in the crystal; source: E. coli Rosetta2 (DE3) pLysS, purified (Ni-NTA, gel filtration); crystals soaked with 5 mM GS-menadione; not shown: His6, C-terminal, kept

Experiments:
ScECM4 = target: T1, ScECM4 (Saccharomyces cerevisiae, UniProt P36156); experiment: absorbance loss at […] nm; HPLC of menadione at […] nm; type: biochemical; settings: GSH 0.05 to 1 mM (spectrophotometry) or 2 mM (HPLC) required; 30 mM Tris-HCl pH 8.0, 1 mM EDTA; room temperature (HPLC)
T1 construct: gene ECM4; full-length, C-terminal His-tag kept (pET-26b NdeI/XhoI), expressed in E. coli Rosetta2 (DE3) pLysS; dimer
T1 sequence (P36156 1-370): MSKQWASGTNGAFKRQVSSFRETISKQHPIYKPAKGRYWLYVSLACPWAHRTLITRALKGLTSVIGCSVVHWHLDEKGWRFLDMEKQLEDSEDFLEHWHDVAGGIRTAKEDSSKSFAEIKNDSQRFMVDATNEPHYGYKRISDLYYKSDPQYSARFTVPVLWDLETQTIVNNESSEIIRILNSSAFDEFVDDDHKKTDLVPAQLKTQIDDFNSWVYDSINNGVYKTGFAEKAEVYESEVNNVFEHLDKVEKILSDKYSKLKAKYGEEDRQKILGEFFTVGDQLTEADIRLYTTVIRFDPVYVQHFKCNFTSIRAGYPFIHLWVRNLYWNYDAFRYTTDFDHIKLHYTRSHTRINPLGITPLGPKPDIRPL

[1] = target: the molecule itself; experiment: crystal structure; microbatch under paraffin oil at 278 K, 20% PEG 2000 MME, 0.1 M Tris-HCl pH 7.0; space group P2(1), two monomers in the asymmetric unit; apo crystals and crystals soaked with 5 mM GS-menadione

Molecule | absorbance loss at 430 nm; HPLC of menadione at 250 nm (ScECM4) | stoichiometry N [1]
CC1=C(SC[C@H](NC(=O)CC[C@H](N)C(=O)O)C(=O)NCC(=O)O)C(=O)c2ccccc2C1=O [GS-menadione] | ScECM4 activity measurements stated for reduction of GS-menadione to menadione in presence of glutathione | 
B1 |  | 2
B2 |  | 2

From PMC5063366, “Crystal Structure of Saccharomyces cerevisiae ECM4, a Xi-Class Glutathione Transferase that Reacts with Glutathionyl-(hydro)quinones” (PLoS ONE, 2016)
